Source: paper PMC3690454, “14-3-3 Proteins Interact with a Hybrid Prenyl-Phosphorylation Motif to Inhibit G Proteins” (Cell, 2013)
Square brackets hold non-standard residues; d marks the D form. Ends that are not written are not given here. * marks the point of attachment. Geranylgeranyl = CC(C)=CCC/C(C)=C/CC/C(C)=C/CC/C(C)=C/C*; Biotin = O=C1N[C@H]2[C@H](CS[C@H]2CCCCC(=O)*)N1; pS = N[C@@H](COP(=O)(O)O)C(=O)O; Ahx = NCCCCCC(=O)O

Target: T1, hexa-His-tagged 14-3-3ζ (UniProt P63104 1-245)
T1 construct: 14-3-3ζ, expressed essentially as in Kostelecky et al., 2009; eluted as a dimer of ~60 kDa; also called recombinant 14-3-3ζ; 14-3-3ζ domain; source: E. coli BL21(DE3) Star, purified (HisTrap, size-exclusion chromatography)
T1 sequence: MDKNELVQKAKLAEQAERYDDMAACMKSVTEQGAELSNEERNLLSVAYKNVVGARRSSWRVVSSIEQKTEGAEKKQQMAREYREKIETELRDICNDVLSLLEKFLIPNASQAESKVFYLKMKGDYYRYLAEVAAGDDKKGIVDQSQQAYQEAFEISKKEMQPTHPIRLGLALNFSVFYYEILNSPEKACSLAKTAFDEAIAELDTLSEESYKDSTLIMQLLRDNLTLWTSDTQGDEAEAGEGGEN
Test: BLI; Octet RED96; biotinylated peptides immobilised on streptavidin biosensors; dilution series of 14-3-3ζ; 25 mM Tris, 150 mM NaCl, 0.1% Tween-20; KD of +P-F by steady-state analysis
Conditions: both partners purified

Kd: ~25 nM
B1: biotinylated Rap1A C-terminal peptide, phosphorylated and geranylgeranylated (peptide)
peptide: {Biotin-Ahx}-EKKKPKKK[pS]C(Geranylgeranyl)
notes: C terminus of Rap1A up to the prenylated C181; also called Rap1A peptide; source: synthetic peptide
